The series relates to NmPAL (PAS-ANTAR-LOV photoreceptor) (Nakamurella multipartita). As to the kind of experiment: fluorescence anisotropy. As to conditions: FA: 4 nM RNA, 12 mM HEPES/HCl pH 7.7, 135 mM KCl, 10 mM NaCl, 1 mM MgCl2, 10% w/v glycerol, 100 ug/mL BSA, dark, or after 60 s blue light (465 nm), temperature ….

As a reminder, the Kd is the constant that tells how readily two partners part at equilibrium.

The sequence ACCUUCGGUUCAGCUGCGAGCCG [58.M21, TAMRA] displayed a Kd (blue light, text says 83-fold reduced) of 250 nM. As for “ACCUUCGGUUCAGCAGCGAGCCG [58 (motif 3), TAMRA]”, the Kd is 3.5 nM (blue light, two-site fit, high-affinity site (second transition micromolar)) and over 3000 nM (darkness, text elsewhere calls this micromolar binding).
